The record followed here is US20260318927 (published 2026).

The target in assay [1] is T1, MR-proADM (human).
T1 chain: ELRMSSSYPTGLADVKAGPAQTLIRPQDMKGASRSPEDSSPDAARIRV
Kind of assay: SPR, 25C pH 7.4, Ab 3-a. (In general: SPR reads the build-up and loss of mass on a sensor chip optically.)

Assay [2] has as its target T1, MR-proADM. Kind of assay: SPR, 25C pH 7.4, Ab 3-d.
The target in assay [3] is T1, MR-proADM. The assay is described as follows: SPR, antigen 2.
Assay [4] has as its target T1, MR-proADM. Kind of assay: SPR, 25C pH 7.4, Ab 3-c.
Assay [5] addresses T1, MR-proADM. Kind of assay: SPR, antigen 1.
Assay [6] deals with T1, MR-proADM. Kind of assay: SPR, 25C pH 7.4, Ab 3-b.
Assay [7] concerns the target T1, MR-proADM. The assay is described as follows: SPR, 25C pH 7.4.
Assay [8] concerns the target T1, MR-proADM. The assay is described as follows: SPR, 25C pH 7.4, Ab 2-a.
Assay [9] has as its target T1, MR-proADM. The assay is described as follows: SPR, 25C pH 7.4, Ab 2-c.
Assay [10] has as its target T1, MR-proADM. The assay is described as follows: SPR, 25C pH 7.4, Ab 2-b.

B1: Ab3 (antibody, V domains shown)
VH: EVQLQQSGPELVRPGASVKISCKASGYSFTDYFMHWMKQSHVKSLEWIGRLNPYNGATNYNQNFKDKATLTVDKSSSTAYMELHSLTSEDSAVYYCLSFTTPPEAYWGQGTLVTVSA
VL: EIVMTQAAFSNPVTLGTSASISCRSNKSLLYSNGITYLFWYLQRPGQSPQLLIYQMSNLASGVPDRFSGSGSGTDFTLRISRVEAEDVGVYYCAQNLELPWTFGGGTKLEIK
With B1, the equilibrium dissociation constant (Kd) – broadly, the constant that tells how readily two partners part at equilibrium – with MR-proADM [1] turned out to be 14.8 nM; with MR-proADM [2], 20.1 nM; with MR-proADM [3], 17.4 nM; with MR-proADM [4], 18.8 nM; with MR-proADM [5], 13.9 nM; in the assay with MR-proADM [6], 17.1 nM.

B2: Ab5 (antibody, V domains shown)
VH: EVQLQQSGPELVKPGASVKISCKASGYSFTDYYMHWVKQSHVKSLEWIGRINPYNGATKYNQNFKDKASLTVDKSSSTAYMELHSLTSEDSAVYYCTRRYDNDDGDYWGQGTTLRVSS
VL: DIVMTQAAFSNPVTLGTSASISCRSSKSLLYSNGITYLYWYLQKPGQSPQLLIYQMSNLASGVPDRFSSSGSGTDFTLRISRVEAEDVGVYYCAQNLELPWTFGGGTKLEIK
For B2, the equilibrium dissociation constant (Kd) turned out to be 101 nM in the assay with MR-proADM [3], 247 nM with MR-proADM [7] and 6.47 nM with MR-proADM [5].

B3: Ab2 (antibody, V domains shown)
VH: QIQLVQSGPELRKPGETVKISCKASGYTFTDYSMHWVKQVPGKVLKWMGWINTETGEPTYVDDFKGRFAFSLETSASTAYLRINILKNEDAATYFCATNFDYWGQGTTLTVSS
VL: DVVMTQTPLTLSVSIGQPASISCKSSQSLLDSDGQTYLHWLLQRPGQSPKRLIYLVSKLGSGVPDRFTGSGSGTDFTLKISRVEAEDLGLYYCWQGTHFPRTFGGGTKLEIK
For B3, the Kd with MR-proADM [8] worked out at 2.97 nM; in the assay with MR-proADM [3] it was 2.57 nM; in the assay with MR-proADM [5] it was 2.49 nM; with MR-proADM [9], 2.82 nM; in the assay with MR-proADM [10] it was 3.02 nM.
